T1: DcR2 (Homo sapiens, UniProt Q9UBN6)
T1 construct: soluble, recombinant DcR1-Ig (sDcR1) and DcR2-Ig (sDcR2); purchased R&D Systems
T1 sequence (Q9UBN6 56-211 limits assumed): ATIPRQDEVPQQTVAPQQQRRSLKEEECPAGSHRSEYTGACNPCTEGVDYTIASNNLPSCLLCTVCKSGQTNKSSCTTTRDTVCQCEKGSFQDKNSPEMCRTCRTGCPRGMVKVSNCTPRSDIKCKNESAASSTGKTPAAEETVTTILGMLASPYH

T2: DcR1 (Homo sapiens, UniProt O14798)
T2 construct: soluble, recombinant DcR1-Ig (sDcR1) and DcR2-Ig (sDcR2); purchased R&D Systems
T2 sequence (O14798 26-236 limits assumed): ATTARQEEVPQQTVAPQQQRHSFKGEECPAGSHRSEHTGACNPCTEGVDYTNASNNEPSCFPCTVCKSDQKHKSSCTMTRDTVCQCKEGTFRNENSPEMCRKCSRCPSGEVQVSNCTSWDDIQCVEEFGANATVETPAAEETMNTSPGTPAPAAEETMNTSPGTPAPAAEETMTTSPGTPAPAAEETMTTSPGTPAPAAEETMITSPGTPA

B1: D269H: rhTRAIL carrying mutation D269H; DR5-selective TRAIL variant (protein)
chain: MVRERGPQRVAAHITGTRGRSNTLSSPNSKNEKALGRKINSWESSRSGHSFLSNLHLRNGELVIHEKGFYYIYSQTYFRFQEEIKENTKNDKQMVQYIYKYTSYPDPILLMKSARNSCWSKDAEYGLYSIYQGGIFELKENDRIFVSVTNEHLIDMHHEASFFGAFLVG
B2: M1: rhTRAIL carrying mutations D269H, E194I and I196S (protein, UniProt P50591 1-281, looked up, variant D269H E194I I196S)
Tumor necrosis factor ligand …: MAMMEVQGGPSLGQTCVLIVIFTVLLQSLCVAVTYVYFTNELKQMQDKYSKSGIACFLKEDDSYWDPNDEESMNSPCWQVKWQLRQLVRKMILRTSEETISTVQEKQQNISPLVRERGPQRVAAHITGTRGRSNTLSSPNSKNEKALGRKINSWESSRSGHSFLSNLHLRNGELVIHEKGFYYIYSQTYFRFQIESKENTKNDKQMVQYIYKYTSYPDPILLMKSARNSCWSKDAEYGLYSIYQGGIFELKENDRIFVSVTNEHLIDMHHEASFFGAFLVG
B3: D269HT214R: TRAIL variant containing mutations D269H and T214R (protein, UniProt P50591 1-281, looked up, variant D269H T214R)
Tumor necrosis factor ligand …: MAMMEVQGGPSLGQTCVLIVIFTVLLQSLCVAVTYVYFTNELKQMQDKYSKSGIACFLKEDDSYWDPNDEESMNSPCWQVKWQLRQLVRKMILRTSEETISTVQEKQQNISPLVRERGPQRVAAHITGTRGRSNTLSSPNSKNEKALGRKINSWESSRSGHSFLSNLHLRNGELVIHEKGFYYIYSQTYFRFQEEIKENTKNDKQMVQYIYKYRSYPDPILLMKSARNSCWSKDAEYGLYSIYQGGIFELKENDRIFVSVTNEHLIDMHHEASFFGAFLVG

Assays:
A2780 cells [1] = assay: MTT cytotoxicity in A2780 (Example 6); format: cell-based; conditions: A2780 (FIG. 8E)
Caski cells = assay: Cell survival / sensitivity of Caski; format: cell-based
Colo205 cells [2] = assay: Cell survival / sensitivity of Colo205; format: cell-based; conditions: Colo205
Procedure: (B) Effect of increasing concentrations of Aspirin on cell viability. (C) Effect of increasing concentrations of 5-Flurouracil on cell viability. (D) Combination therapy with 5 mM Aspirin pre-incubated for 24 h lead to further decreases in cell viability in cells treated with both TRAIL and two of the DR5 mutants. (E) 30 minute incubation of DR5 mutants, were sufficient decrease cell viability which was further augmented when cells were pre-incubated for 24 h with Aspirin. The shorter incubation period lead to a decrease potency of TRAIL alone or in combination with Aspirin. […] (G) 30 min incubation of the DR5 mutant was sufficient to decrease cell viability which was not enhanced by 5-Flurouracil, and once again the decease potency of TRAIL is seen. Proteins are indicated as follows: TRAIL stands for rhTRAIL WT; D269H stands for rhTRAIL carrying mutation D269H; E195R stands for rhTRAIL carrying mutations D269H and E195R; and M1 stands for rhTRAIL carrying mutations D269H, E194I and I196S.
TRAIL-induced cell death as a function of concentration was measured with the MTS assay.

LoVo cells = assay: Cell survival / sensitivity of LoVo; format: cell-based
Description: C) Effect of increasing concentration of 5-Flurouracil on Lovo cells.

DcR2 = biological target: T1, DcR2; assay: SPR receptor binding assay, immobilized DcR2-Ig; conditions: 0.1-250 nM ligand
Procedure: (§1) The response data (in response units) as a function of TRAIL concentration were fitted using a four parameter equation to give an apparent pre-steady state affinity constant.
(§2) Binding experiments were performed at 37° C. using a surface plasmon resonance-based biosensor (Biacore 3000, Biacore AB, Uppsala, Sweden) as previously described^10. In short, DcR1-Ig and DcR2-Ig receptor chimeras (R&D Systems) were captured at a 35 μl/min flow rate using a protein A (Sigma) modified CM5 sensor chip (Biacore). Receptor chimeras were captured at a level of ˜500-800 response units (RU). […] Binding of ligands to the receptors was monitored in real-time. Between injections the protein A sensor surface was regenerated using a 30s pulse of 0.1 M glycine 0.5 M NaCl pH 3. Due to the very slow dissociation of the TRAIL-receptor complex, only pre-steady state binding data could be obtained. In order to obtain data that represent proper high-affinity complex formation, the response at each concentration was recorded 30 sec after the end of the injection. The response data (in response units) as a function of TRAIL concentration were fitted using a four parameter equation to give an apparent pre-steady state affinity constant.
(§3) Affinity of the ligands was assessed by measuring receptor binding in a concentration range of 0.1-250 nM.

DR5 = biological target: T3, DR5 (Homo sapiens, UniProt O14763); conditions: earlier work referred to; cited from earlier work
T3 construct: Effect of soluble recombinant DR5-Ig (sDR5) on apoptosis induction

[3] = system: human umbilical vein endothelial cells (HUVEC); assay: Viability of HUVEC; format: cell-based; conditions: 50-500 ng/ml, 24 h, MTT
Procedure: (§4) Human dermal fibroblasts were grown in low glucose DMEM (Sigma) supplemented with 10% fetal calf serum, 50 U/ml penicillin and […] streptomycin; human umbilical vein endothelial cells (HUVEC, PromoCell) were cultured in Endothelial Cell Growth Medium with SupplementMix (PromoCell). Fibroblasts and HUVEC cells were seeded at 1.3×10^5 cells/ml 24 h before treatment with increasing concentrations of TRAIL and DR5-selective variants, D269H and D269HE195R (50-500 ng/ml) for 24 h and cell viability was measured using MTT assay, wherein 200 μg/ml MTT (3-(4,5-dimethylthiazo1-2-yl)-2,5-diphenyl-tetrazolium bromide) was added to control and treated cells and incubated for 3 h at 37° C. The reaction was stopped and the purple formazan precipitate formed was dissolved using dimethyl sulfoxide (DMSO) and the colour intensity was measured at 550 nm on a Wallac multilabel counter. The control value corresponding to untreated cells was taken as 100% and the viability of treated samples was expressed as a percentage of the control. (FIG. 15).

SW948 cells = assay: Cell survival / sensitivity of SW948; format: cell-based
Colo205 cells [4] = assay: Colo205 apoptosis after pre-incubation of ligand with soluble receptor-Ig; format: cell-based, human; conditions: 10 ng/ml ligand
Procedure: (A) Effect of soluble recombinant DcR1-Ig (sDcR1) on apoptosis induction by TRAIL and DR5-selective variants. […] All graphs are representatives of two independent repeats. (D) Neutralizing antibodies against DcR1 and DcR2 can augment wtTRAIL- but not DR5-variant induced cell death. […] Induction of apoptosis was measured 3 h post-treatment using Annexin V assay. […] The graphs show the average±SEM of three independent experiments.
Induction of cell death was assessed by Annexin V assay 3 h after treatment (FIG. 14), as described above. […] (FIG. 14C). This confirms that the observed differences in blocking efficacy are due to reduced ability of the decoy receptors to bind and inhibit D269H and D269HE195R.

Human dermal fibroblasts = assay: MTT viability of human dermal fibroblasts; format: cell-based; conditions: 50-500 ng/ml, 24 h
Procedure: as §4

HeLa cells = assay: Cell survival / sensitivity of HeLa; format: cell-based
Procedure: (B) Effect of increasing of Bortezomib on cell viability. Hela cells appear to tolerate higher concentration of Bortezomib compared to Caski and SIHA cells (C) Combination therapy with 10 nM Bortezomib incubated for 24 h lead to further decreases in cell viability in cells treated with both TRAIL and two of the DR5 mutants (D) Radiation therapy in combination with TRAIL or the DR5 mutants further decrease cell viability in HELA cells. The DR5 mutant show decrease cell viability at lower concentration of ligand compared to TRAIL.

A2780 cells [5] = assay: Annexin V apoptosis assay in A2780; format: cell-based, human; conditions: A2780 ovarian cancer cells
ML-1 cells = assay: Cytotoxicity in ML-1 cells; format: cell-based
Procedure: (§5) Colo205 and ML-1 cells were then treated with increasing concentrations of TRAIL or the DR5-specific variants D269H, D269HE195R, and D269H/T214R, and their cytotoxic potential was measured with a 3-(4,5-dimethylthiazol-2-yl)-2,5-diphenyl tetrazolium bromide (MTT) assay.

DcR1 = biological target: T2, DcR1; assay: SPR receptor binding assay, immobilized DcR1-Ig; conditions: 0.1-250 nM ligand
Procedure: as §1, §2, §3

DR4 = biological target: T4, DR4 (Homo sapiens, UniProt O00220); conditions: earlier work referred to; cited from earlier work
T4 construct: the more commonly used dimeric TRAIL-receptor-IgG Fc chimeric constructs
T4 sequence (O00220 24-239 limits assumed): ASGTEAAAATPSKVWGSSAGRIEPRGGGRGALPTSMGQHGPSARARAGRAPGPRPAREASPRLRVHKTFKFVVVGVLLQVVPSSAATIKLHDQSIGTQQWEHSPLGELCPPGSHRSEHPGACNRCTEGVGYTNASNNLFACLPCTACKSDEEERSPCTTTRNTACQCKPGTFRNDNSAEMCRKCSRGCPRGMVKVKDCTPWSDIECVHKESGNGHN

Colo205 cells [6] = assay: MTT cytotoxicity and DR4/DR5 neutralizing antibodies in Colo205; format: cell-based, human; conditions: Colo205, at a lower concentration (FIG. 8C)
Procedure: To assess the biological activity related to DR5 binding, various cancer cells were used. Colo205 colon carcinoma cells and ML-1 […] myeloid leukemia cells express all four TRAIL receptors on the cell surface, as shown by using FACS analysis (FIG. 7), and are sensitive to TRAIL-induced apoptosis. To test the involvement of DR4 versus DR5 in TRAIL-induced cell death, Colo205 cells were treated with neutralizing anti-DR4 or anti-DR5 antibody for 1 h before the addition of TRAIL. […] In contrast, the DR4 pathway is the major mediator of TRAIL-induced apoptosis in ML-1 cells (FIG. 8A.) To examine whether the DR5-specific TRAIL variants induce cell death in Colo205 cells by way of the DR5 receptor, 1 μg/ml neutralizing anti-DR4 or -DR5 antibodies were administered 1 h before ligand treatment.
as §5

Row | Molecule | cytotoxic activity compared with wild-type TRAIL (A2780 cells [1]) | cell viability, single agent (Caski cells) | cell viability, single agent (Colo205 cells [2]) | cell viability, single agent (LoVo cells) | binding toward DcR2 compared to wtTRAIL (DcR2) | affinity for the DR5 receptor (DR5) | cell viability [3] | cell viability, single agent (SW948 cells) | effect of pre-incubation with sDcR2 on apoptosis induction (Colo205 cells [4]) | effect of pre-incubation with sDcR1 on pro-apoptotic activity (Colo205 cells [4]; sDcR1 up to 2 μg/ml) | cell viability (Human dermal fibroblasts) | cell viability, single agent (HeLa cells) | increase in apoptosis / efficiency compared to wtTRAIL (A2780 cells [5]) | cell death induction (ML-1 cells) | binding towards DcR1, reduction compared to wtTRAIL (DcR1) | binding to DR4 (DR4) | increase of apoptosis rate compared to wtTRAIL (Colo205 cells [6]) [fold]
1 | B1 | significantly increased | comparable | significantly less cell viability than TRAIL | equal decrease in cell viability | reduced | increased | did not result in a decrease in cell viability | decreased cell viability | only at a two fold higher concentration than for wtTRAIL | failed to reduce | did not result in a decrease in cell viability | comparable | 3-4 fold | only TRAIL was able to induce cell death | approximately 20 fold | highly reduced | 
2 | B2 |  | comparable | significantly less cell viability than TRAIL | equal decrease in cell viability |  |  |  | decreased cell viability |  |  |  | comparable |  |  |  |  | 
3 | B3 | significantly increased |  |  |  |  |  |  |  |  |  |  |  | 2 fold | only TRAIL was able to induce cell death |  |  | 1.5

Source: patent US20110165265A1, “TRAIL VARIANTS FOR TREATING CANCER” (FUNDACIÓ GENÒMICA (CRG), priority 2007, published 2011)
